Measured values taken from patent US20260166185A1 (Y MABS THERAPEUTICS, published 2026).

Experiments:
CD38 on Daudi cells = target: T1, CD38 on Daudi cells (UniProt P28907 1-300, limits assumed); assay: titration binding FACS on Daudi cells
T1 construct: whole, on cells
Method: (§1) Subsequently the EC50 of antibodies samples was determined by titration binding FACS on Daudi cells (for CD38 binding evaluation), on THP-1 cells (for CD33 binding evaluation), on A-431 cells (for EGFR binding evaluation), on MKN-45 cells (for CEACAMS binding evaluation) and on HEK293T (for CD276 binding evaluation). Jurkat E6-1 or HEK293T cell lines were used as negative control, as applicable.

bio-huCD38 [1] = target: T2, bio-huCD38 (human (hu), UniProt P28907 43-300, biotinylated (bio-), site not stated); assay: SPR, antigen immobilized, antibody as analyte 25-1.6 nM
Method: (§2) SPR analysis was performed on a Biocore 8K+, using a CFJB0944 CM5 sensor chip for immobilization and a SPR running buffer 1×HBS-EP+pH 7.4 (Cytiva, cat no. BR100669) according to the manufacturer's instructions.
(§3) In the second part of this example, antigen was immobilized on the chip and antibody dissolved in the SPR running buffer flowed over the chip.

bio-huCD38 [2] = target: T2, bio-huCD38; assay: SPR, antibody captured on chip, antigen as analyte 200-6.25 nM
Method: as §2
In the first part of this example the antibody was immobilized on the chip and the antigen dissolved in the SPR running buffer flowed over the chip.

bio-huCD38 [3] = target: T2, bio-huCD38; assay: SPR, antigen immobilized, antibody as analyte 25-1.6 nM; at the instrument's limit
bio-huCD38 [4] = target: T2, bio-huCD38; assay: SPR, antigen immobilized, antibody as analyte 25-1.6 nM; estimated from ka and the limit kd, indicative
Method: as §2, §3

[5] = target: target expressed in cell line for the HER2/CD276 trivalent molecules (HER2 and/or CD276; cell line not named); assay: titration binding FACS, target cell line not named
CD276 on HEK293T cells = target: T3, CD276 on HEK293T cells (UniProt Q5ZPR3 29-534, limits assumed); assay: FACS titration on HEK293T cells (the line used for CD276 binding evaluation), GeoMFI (RL1-H); control cell line Jurkat E6-1
T3 construct: whole, on cells
T3 sequence (looked up): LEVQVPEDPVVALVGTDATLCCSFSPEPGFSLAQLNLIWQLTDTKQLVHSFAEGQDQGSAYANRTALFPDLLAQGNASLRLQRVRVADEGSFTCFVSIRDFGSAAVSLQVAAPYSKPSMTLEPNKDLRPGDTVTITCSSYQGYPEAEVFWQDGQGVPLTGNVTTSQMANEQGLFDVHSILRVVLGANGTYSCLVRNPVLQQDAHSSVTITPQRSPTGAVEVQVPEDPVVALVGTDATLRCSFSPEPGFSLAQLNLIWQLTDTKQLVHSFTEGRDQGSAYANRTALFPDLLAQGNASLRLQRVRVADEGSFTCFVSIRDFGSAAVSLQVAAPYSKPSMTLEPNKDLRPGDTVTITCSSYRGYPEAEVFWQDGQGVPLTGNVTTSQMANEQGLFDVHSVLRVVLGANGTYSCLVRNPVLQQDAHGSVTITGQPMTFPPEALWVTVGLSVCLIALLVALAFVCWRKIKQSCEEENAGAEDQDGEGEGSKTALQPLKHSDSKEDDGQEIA
Method: as §1

EGFR on A-431 cells = target: T4, EGFR on A-431 cells (UniProt P00533 25-1210, limits assumed); assay: titration binding FACS on A-431 cells
T4 construct: whole, on cells
Method: as §1

bio-huEGFR = bio-huEGFR (human (hu), UniProt P00533 25-645, biotinylated (bio-), site not stated); assay: SPR, antigen immobilized, antibody as analyte 25-1.6 nM
Method: as §2, §3

Row | Binder | EC50 (CD38 on Daudi cells) [nM] | kon (bio-huCD38 [1]) [M⁻¹ s⁻¹] | Kd (bio-huCD38 [2]) [nM] | koff (bio-huCD38 [2]) [s⁻¹] | kon (bio-huCD38 [2]) [M⁻¹ s⁻¹] | koff (bio-huCD38 [3]) [s⁻¹] | Kd (bio-huCD38 [4]) [nM] | EC50 [5] [nM] | binding result (CD276 on HEK293T cells) | other results
1 | CD38 (bivalent)-DOTA(Fab)-p53 (bispecific antibody, Two identical CD38 VHHs, one on each Fab chain; has the p53 tetramerization domain; also called YM00004; molecule 3) light: DVQLQESGGGLVQAGGSLRLSCTGSGRTFRNYPMAWFRQAPGKEREFVAGITWVGASTLYADFAKGRFTISRDNAKNTVYLQMNSLKPEDTAVYSCAAGRGIVAGRIPAEYADWGQGTQVTVSSGGGGSGGGGSGGGGSGGGGGSQAVVIQESALTTPPGETVTLTCGSSTGAVTASNYANWVQEKPDHLFTGLIGGHNNRPPGVPARFSGSLIGDKAALTIAGTQTEDEAIYFCALWYSDHWVIGGGTRLTVLGQPKANPTVTLFPPSSEELQANKATLVCLISDFYPGAVTVAWKADGSPVKAGVETTKPSKQSNNKYAASSYLSLTPEQWKSHRSYSCQVTHEGSTVEKTVAPTECS heavy: DVQLQESGGGLVQAGGSLRLSCTGSGRTFRNYPMAWFRQAPGKEREFVAGITWVGASTLYADFAKGRFTISRDNAKNTVYLQMNSLKPEDTAVYSCAAGRGIVAGRIPAEYADWGQGTQVTVSSGGGGSGGGGSGGGGSGGGGGSHVKLQESGPGLVQPSQSLSLTCTVSGFSLTDYGVHWVRQSPGKGLEWLGVIWSGGGTAYNTALISRLNIYRDNSKNQVFLEMNSLQAEDTAMYYCARRGSYPYNYFDAWGRGTTVTVSSASTKGPSVFPLAPSSKSTSGGTAALGCLVKDYFPEPVTVSWNSGALTSGVHTFPAVLQSSGLYSLSSVVTVPSSSLGTQTYICNVNHKPSNTKVDKKVEPKSCGGGGSGGGGSKPLDGEYFTLQIRGRERFEMFRELNEALELKDAQAGKEPGGS | 3.45 | 121000 | 2.77 | 0.00012 | 43200 | < 1e-07 | < 0.000826 | – | – | –
2 | CD38(Bivalent)-DOTA(fab)-p53_C-Term (bispecific antibody, Two identical C-terminal CD38 VHHs; has the p53 tetramerization domain; also called YM00015; molecule 14) light: QAVVIQESALTTPPGETVTLTCGSSTGAVTASNYANWVQEKPDHLFTGLIGGHNNRPPGVPARFSGSLIGDKAALTIAGTQTEDEAIYFCALWYSDHWVIGGGTRLTVLGQPKANPTVTLFPPSSEELQANKATLVCLISDFYPGAVTVAWKADGSPVKAGVETTKPSKQSNNKYAASSYLSLTPEQWKSHRSYSCQVTHEGSTVEKTVAPTECSGGGGSGGGGSGGGGSGGGGGSDVQLQESGGGLVQAGGSLRLSCTGSGRTFRNYPMAWFRQAPGKEREFVAGITWVGASTLYADFAKGRFTISRDNAKNTVYLQMNSLKPEDTAVYSCAAGRGIVAGRIPAEYADWGQGTQVTVSS heavy: HVKLQESGPGLVQPSQSLSLTCTVSGFSLTDYGVHWVRQSPGKGLEWLGVIWSGGGTAYNTALISRLNIYRDNSKNQVFLEMNSLQAEDTAMYYCARRGSYPYNYFDAWGRGTTVTVSSASTKGPSVFPLAPSSKSTSGGTAALGCLVKDYFPEPVTVSWNSGALTSGVHTFPAVLQSSGLYSLSSVVTVPSSSLGTQTYICNVNHKPSNTKVDKKVEPKSCGGGGSGGGGSGGGGSGGGGGSDVQLQESGGGLVQAGGSLRLSCTGSGRTFRNYPMAWFRQAPGKEREFVAGITWVGASTLYADFAKGRFTISRDNAKNTVYLQMNSLKPEDTAVYSCAAGRGIVAGRIPAEYADWGQGTQVTVSSGGGGSGGGGSKPLDGEYFTLQIRGRERFEMFRELNEALELKDAQAGKEPGGS | 3.24 | 187000 | 1.89 | 6.41e-05 | 33800 | < 1e-07 | < 0.000535 | – | – | –
3 | EGFR-DOTA(fab)-p53 (bispecific antibody, The assays name bio-huEGFR and A-431 cells; also called YM00010; molecule 9) light: EVQLVESGGGLVQPGGSLRLSCVASGFTFADYAMSWVRQAPGKGLQWVSSISYNGDTTYYAESMKDRFTISRDNAKNTLYLQMNSLKSEDTAVYYCASSGSYYPGHFESWGQGTQVTVSSGGGGSGGGGSGGGGSGGGGGSQAVVIQESALTTPPGETVTLTCGSSTGAVTASNYANWVQEKPDHLFTGLIGGHNNRPPGVPARFSGSLIGDKAALTIAGTQTEDEAIYFCALWYSDHWVIGGGTRLTVLGQPKANPTVTLFPPSSEELQANKATLVCLISDFYPGAVTVAWKADGSPVKAGVETTKPSKQSNNKYAASSYLSLTPEQWKSHRSYSCQVTHEGSTVEKTVAPTECS heavy: HVKLQESGPGLVQPSQSLSLTCTVSGFSLTDYGVHWVRQSPGKGLEWLGVIWSGGGTAYNTALISRLNIYRDNSKNQVFLEMNSLQAEDTAMYYCARRGSYPYNYFDAWGRGTTVTVSSASTKGPSVFPLAPSSKSTSGGTAALGCLVKDYFPEPVTVSWNSGALTSGVHTFPAVLQSSGLYSLSSVVTVPSSSLGTQTYICNVNHKPSNTKVDKKVEPKSCGGGGSGGGGSKPLDGEYFTLQIRGRERFEMFRELNEALELKDAQAGKEPGGS | – | – | – | – | – | – | – | – | – | EC50 (EGFR on A-431 cells): 51.5 nM; Kd (bio-huEGFR): 2.12 nM; koff (bio-huEGFR): 0.000985 s⁻¹; kon (bio-huEGFR): 464000 M⁻¹ s⁻¹

Now from value to binder, other results behind:

Row | EC50 (CD38 on Daudi cells) [nM] | kon (bio-huCD38 [1]) [M⁻¹ s⁻¹] | Kd (bio-huCD38 [2]) [nM] | koff (bio-huCD38 [2]) [s⁻¹] | kon (bio-huCD38 [2]) [M⁻¹ s⁻¹] | koff (bio-huCD38 [3]) [s⁻¹] | Kd (bio-huCD38 [4]) [nM] | EC50 [5] [nM] | binding result (CD276 on HEK293T cells) | Binder | other results
4 | – | – | – | – | – | – | – | 12.4 | binds | HER2/CD276_23F11-DOTA(humanized fab)-p53 (bispecific antibody, Three specificities (HER2 VHH, CD276 VHH, humanized DOTA Fab); also called YM00053; molecule 17) light: QVQLQESGGGSVQAGGSLKLTCAASGYIFNSCGMGWYRQSPGRERELVSRISGDGDTWHKESVKGRFTISQDNVKKTLYLQMNSLKPEDTAVYFCAVCYNLETYWGQGTQVTVSSGGGSGGGSGGGSGGGGSQAVVTQEPSLTVSPGGTVTLTCGSSTGAVTASNYANWVQQKPGQAPRGLIGGHNNRPPGVPARFSGSLLGGKAALTLLGAQPEDEAEYYCALWYSDHWVIGGGTKLTVLGQPKANPTVTLFPPSSEELQANKATLVCLISDFYPGAVTVAWKADGSPVKAGVETTKPSKQSNNKYAASSYLSLTPEQWKSHRSYSCQVTHEGSTVEKTVAPTECS heavy: QVQLVESGGGLVQAGGSLRLSCAASGRTFSRQVMGWFRQAPGKERAFVAAISGSGGTTMYAGSVKGRFTISKDNAKNMVYLQMNSLKPEDTAVYYCNTVTPYDSWGQGTQVTVSSGGGGSGGGGSGGGGSGGGGGSHVQLVESGGGLVQPGGSLRLSCAASGFSLTDYGVHWVRQAPGKGLEWLGVIWSGGGTAYNTALISRFTISRDNSKNTLYLQMNSLRAEDTAVYYCARRGSYPYNYFDAWGQGTLVTVSSASTKGPSVFPLAPSSKSTSGGTAALGCLVKDYFPEPVTVSWNSGALTSGVHTFPAVLQSSGLYSLSSVVTVPSSSLGTQTYICNVNHKPSNTKVDKKVEPKSCGGGGSGGGGSKPLDGEYFTLQIRGRERFEMFRELNEALELKDAQAGKEPGGSGGAP | –
5 | – | – | – | – | – | – | – | 90.2 | binds | HER2/CD276_23A04-DOTA(humanized fab)-p53 (bispecific antibody, Three specificities (HER2 VHH, CD276 VHH, humanized DOTA Fab); also called YM00052; molecule 18) light: QVQLQESGGGSVQAGGSLKLTCAASGYIFNSCGMGWYRQSPGRERELVSRISGDGDTWHKESVKGRFTISQDNVKKTLYLQMNSLKPEDTAVYFCAVCYNLETYWGQGTQVTVSSGGGSGGGSGGGSGGGGSQAVVTQEPSLTVSPGGTVTLTCGSSTGAVTASNYANWVQQKPGQAPRGLIGGHNNRPPGVPARFSGSLLGGKAALTLLGAQPEDEAEYYCALWYSDHWVIGGGTKLTVLGQPKANPTVTLFPPSSEELQANKATLVCLISDFYPGAVTVAWKADGSPVKAGVETTKPSKQSNNKYAASSYLSLTPEQWKSHRSYSCQVTHEGSTVEKTVAPTECS heavy: QVQLVESGGGLVQSGDSLRLSCGWSGRTFSGYAMGWFRKAPGKDYEFVAAISVSETKTRYADSIRGRFTISRDNAKNTVYLQMNSLKPEDTAVYYCAASRSGVVGGREPTRYNYWGQGTQVTVSSGGGGSGGGGSGGGGSGGGGGSHVQLVESGGGLVQPGGSLRLSCAASGFSLTDYGVHWVRQAPGKGLEWLGVIWSGGGTAYNTALISRFTISRDNSKNTLYLQMNSLRAEDTAVYYCARRGSYPYNYFDAWGQGTLVTVSSASTKGPSVFPLAPSSKSTSGGTAALGCLVKDYFPEPVTVSWNSGALTSGVHTFPAVLQSSGLYSLSSVVTVPSSSLGTQTYICNVNHKPSNTKVDKKVEPKSCGGGGSGGGGSKPLDGEYFTLQIRGRERFEMFRELNEALELKDAQAGKEPGGSGGAP | –
